Experimental data from PMC1459065.
Like-named read-outs stand apart in the source and are kept apart here.

B1: TGG-repeating 48mer (ssDNA)
DNA: TGGTGGTGGTGGTGGTGGTGGTGGTGGTGGTGGTGGTGGTGGTGGTGG
B2: CCA-repeating 48mer (ssDNA)
DNA: CCACCACCACCACCACCACCACCACCACCACCACCACCACCACCACCA

Key:
[1] = molecular target: T1, RecA (Escherichia coli, UniProt P0A7G6 1-353); assay: double filter binding
[2] = molecular target: T1, RecA; assay: double filter binding; remark: listed apart in the source

T1 sequence (P0A7G6 whole entry): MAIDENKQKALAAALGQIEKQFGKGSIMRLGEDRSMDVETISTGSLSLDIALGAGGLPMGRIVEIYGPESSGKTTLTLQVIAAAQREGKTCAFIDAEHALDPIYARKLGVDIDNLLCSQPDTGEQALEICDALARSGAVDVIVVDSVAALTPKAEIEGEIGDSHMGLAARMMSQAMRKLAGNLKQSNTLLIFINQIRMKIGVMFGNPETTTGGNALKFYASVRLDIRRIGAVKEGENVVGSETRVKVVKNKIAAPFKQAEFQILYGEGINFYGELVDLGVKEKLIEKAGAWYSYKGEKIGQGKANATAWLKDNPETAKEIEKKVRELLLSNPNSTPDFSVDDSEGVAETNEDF

| Binder | Kd [1] [nM] | Kd [2] [nM] |
| --- | --- | --- |
| B1 | 91 | – |
| B2 | – | 246 |
